Measurements from patent US20160153985A1.

Legend:
[1] = target: pure human iC3b (Complement Technology, A115) (human) (UniProt P01024); assay: sandwich ELISA, capture A209 (Example 5), goat anti-C3-HRP; TABLE 6 well A6, blocker
[2] = target: pure human iC3b (Complement Technology, A115) (human) (UniProt P01024); assay: sandwich ELISA, capture A209 (Example 5), goat anti-C3-HRP; TABLE 6 well A8, blocker
[3] = target: pure human iC3b (Complement Technology, A115) (human) (UniProt P01024); assay: sandwich ELISA, capture A209 (Example 5), goat anti-C3-HRP; TABLE 6 well B2, blocker
[4] = target: pure human iC3b (Complement Technology, A115) (human) (UniProt P01024); assay: sandwich ELISA, capture A209 (Example 5), goat anti-C3-HRP; TABLE 6 well B4, blocker
[5] = target: pure human iC3b (Complement Technology, A115) (human) (UniProt P01024); assay: sandwich ELISA, capture A209 (Example 5), goat anti-C3-HRP; TABLE 6 well C2, 30% vitreous
[6] = target: pure human iC3b (Complement Technology, A115) (human) (UniProt P01024); assay: sandwich ELISA, capture A209 (Example 5), goat anti-C3-HRP; TABLE 6 well C6, 30% vitreous
[7] = target: pure human iC3b (Complement Technology, A115) (human) (UniProt P01024); assay: sandwich ELISA, capture A209 (Example 5), goat anti-C3-HRP; TABLE 6 well C8, 30% vitreous
[8] = target: pure human iC3b (Complement Technology, A115) (human) (UniProt P01024); assay: sandwich ELISA, capture A209 (Example 5), goat anti-C3-HRP; TABLE 6 well D4, 30% vitreous
[9] = target: pure human iC3b (Complement Technology, A115) (human) (UniProt P01024); assay: sandwich ELISA, capture A209 (Example 5), goat anti-C3-HRP; TABLE 6 well D6, 30% vitreous
[10] = target: pure human iC3b (Complement Technology, A115) (human) (UniProt P01024); assay: sandwich ELISA, capture A209 (Example 5), goat anti-C3-HRP; TABLE 6 well E6, 20% vitreous
[11] = target: pure human iC3b (Complement Technology, A115) (human) (UniProt P01024); assay: sandwich ELISA, capture A209 (Example 5), goat anti-C3-HRP; TABLE 6 well F4, 20% vitreous
[12] = target: pure human iC3b (Complement Technology, A115) (human) (UniProt P01024); assay: sandwich ELISA, capture A209 (Example 5), goat anti-C3-HRP; TABLE 6 well F6, 20% vitreous
[13] = target: pure human iC3b (Complement Technology, A115) (human) (UniProt P01024); assay: sandwich ELISA, capture A209 (Example 5), goat anti-C3-HRP; TABLE 6 well G3, 10% vitreous
[14] = target: pure human iC3b (Complement Technology, A115) (human) (UniProt P01024); assay: sandwich ELISA, capture A209 (Example 5), goat anti-C3-HRP; TABLE 6 well G6, 10% vitreous
[15] = target: pure human iC3b (Complement Technology, A115) (human) (UniProt P01024); assay: sandwich ELISA, capture A209 (Example 5), goat anti-C3-HRP; TABLE 6 well H2, 10% vitreous
[16] = target: pure human iC3b (Complement Technology, A115) (human) (UniProt P01024); assay: sandwich ELISA, capture A209 (Example 5), goat anti-C3-HRP; TABLE 6 well H3, 10% vitreous
[17] = target: pure human iC3b (Complement Technology, A115) (human) (UniProt P01024); assay: sandwich ELISA, capture A209 (Example 5), goat anti-C3-HRP; TABLE 6 well H5, 10% vitreous
[18] = target: pure human iC3b (Complement Technology, A115) (human) (UniProt P01024); assay: sandwich ELISA, capture A209 (Example 5), goat anti-C3-HRP; TABLE 6 well H9, 10% vitreous
[19] = target: pure human iC3b (Complement Technology, A115) (human) (UniProt P01024); assay: sandwich ELISA, capture A209 (Example 5), goat anti-C3-HRP; TABLE 7, iC3b in 10% vitreous

Chain of UniProt P01024 (P01024 23-667 limits assumed, chain 1 of 3): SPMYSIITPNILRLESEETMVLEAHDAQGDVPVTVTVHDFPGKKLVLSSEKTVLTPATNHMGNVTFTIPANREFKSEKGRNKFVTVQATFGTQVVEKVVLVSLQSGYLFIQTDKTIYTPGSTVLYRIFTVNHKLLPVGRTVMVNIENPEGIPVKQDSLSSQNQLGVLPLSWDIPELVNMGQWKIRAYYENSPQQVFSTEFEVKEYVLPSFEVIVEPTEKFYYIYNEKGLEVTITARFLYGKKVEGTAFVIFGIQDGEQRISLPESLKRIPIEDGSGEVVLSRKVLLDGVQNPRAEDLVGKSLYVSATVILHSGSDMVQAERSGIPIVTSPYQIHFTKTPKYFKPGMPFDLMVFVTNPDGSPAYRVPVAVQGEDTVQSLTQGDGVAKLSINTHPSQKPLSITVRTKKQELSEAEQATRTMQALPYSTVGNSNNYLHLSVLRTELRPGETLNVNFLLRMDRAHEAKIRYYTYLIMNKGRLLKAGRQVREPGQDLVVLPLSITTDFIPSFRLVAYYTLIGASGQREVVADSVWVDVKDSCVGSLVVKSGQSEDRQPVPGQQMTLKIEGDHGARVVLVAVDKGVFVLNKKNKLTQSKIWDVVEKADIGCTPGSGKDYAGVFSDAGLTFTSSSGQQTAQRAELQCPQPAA
Chain of UniProt P01024 (P01024 749-1303 limits assumed, chain 2 of 3): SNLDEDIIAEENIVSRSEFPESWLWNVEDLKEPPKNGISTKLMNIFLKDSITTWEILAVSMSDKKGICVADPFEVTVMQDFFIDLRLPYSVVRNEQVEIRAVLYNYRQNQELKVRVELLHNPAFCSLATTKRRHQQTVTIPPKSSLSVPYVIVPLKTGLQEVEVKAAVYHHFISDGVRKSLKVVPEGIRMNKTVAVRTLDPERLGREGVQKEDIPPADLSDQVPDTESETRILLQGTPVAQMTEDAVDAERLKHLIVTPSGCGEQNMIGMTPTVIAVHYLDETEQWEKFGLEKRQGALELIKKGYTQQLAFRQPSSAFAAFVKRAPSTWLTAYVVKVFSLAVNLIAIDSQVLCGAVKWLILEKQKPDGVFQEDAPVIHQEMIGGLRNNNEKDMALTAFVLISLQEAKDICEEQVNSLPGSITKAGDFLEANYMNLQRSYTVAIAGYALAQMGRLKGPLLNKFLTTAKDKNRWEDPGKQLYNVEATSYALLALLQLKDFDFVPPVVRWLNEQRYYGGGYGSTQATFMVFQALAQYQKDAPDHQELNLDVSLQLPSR
Chain of UniProt P01024 (P01024 1321-1663 limits assumed, chain 3 of 3): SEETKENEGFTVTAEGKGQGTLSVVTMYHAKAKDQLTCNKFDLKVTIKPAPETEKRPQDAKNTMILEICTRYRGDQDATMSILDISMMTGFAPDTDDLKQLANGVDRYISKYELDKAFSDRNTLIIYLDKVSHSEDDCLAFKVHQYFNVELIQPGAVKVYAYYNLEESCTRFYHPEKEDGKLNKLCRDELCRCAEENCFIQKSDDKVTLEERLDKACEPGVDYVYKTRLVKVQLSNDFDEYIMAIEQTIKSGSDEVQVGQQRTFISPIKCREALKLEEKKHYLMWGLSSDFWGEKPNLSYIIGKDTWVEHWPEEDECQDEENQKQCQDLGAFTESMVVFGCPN

raw A450 at iC3b 0.063 ug/ml [1]: 0.064 OD | raw A450 at iC3b 0.016 ug/ml [2]: 0.043 OD | raw A450 at iC3b 1 ug/ml [3]: 0.344 OD | raw A450 at iC3b 0.25 ug/ml [4]: 0.167 OD | raw A450 at iC3b 1 ug/ml [5]: 0.443 OD | raw A450 at iC3b 0.063 ug/ml [6]: 0.375 OD | raw A450 at iC3b 0.016 ug/ml [7]: 0.336 OD | raw A450 at iC3b 0.25 ug/ml [8]: 0.433 OD | raw A450 at iC3b 0.063 ug/ml [9]: 0.362 OD | raw A450 at iC3b 0.063 ug/ml [10]: 0.353 OD | raw A450 at iC3b 0.25 ug/ml [11]: 0.435 OD | raw A450 at iC3b 0.063 ug/ml [12]: 0.355 OD | raw A450 at iC3b 0.5 ug/ml [13]: 0.385 OD | raw A450 at iC3b 0.063 ug/ml [14]: 0.254 OD | raw A450 at iC3b 1 ug/ml [15]: 0.42 OD | raw A450 at iC3b 0.5 ug/ml [16]: 0.316 OD | raw A450 at iC3b 0.125 ug/ml [17]: 0.3 OD | raw A450 at iC3b 0.0078 ug/ml [18]: 0.207 OD | A450 minus matrix average at iC3b 0.0078 ug/ml [19]: -0.008 OD | A450 minus matrix average at iC3b 0.016 ug/ml [19]: 0.006 OD | A450 minus matrix average at iC3b 0.031 ug/ml [19]: 0.014 OD | A450 minus matrix average at iC3b 0.063 ug/ml [19]: 0.017 OD | A450 minus matrix average at iC3b 0.125 ug/ml [19]: 0.062 OD | A450 minus matrix average at iC3b 0.25 ug/ml [19]: 0.056 OD | A450 minus matrix average at iC3b 0.5 ug/ml [19]: 0.125 OD | A450 minus matrix average at iC3b 1 ug/ml [19]: 0.239 OD
Substance: mouse anti-iC3b antibody A209 (Quidel)
